Reference: publication PMC4469479

Substrate: NCCc1ccc(O)c(O)c1
Assay: cells, lysate or membranes
Details: other: HEK293S cells; 14C-DA 0.3–60 μM; s.e.m.; pH 7.4

B1: dDATwt (Drosophila melanogaster) (protein)
chain: MSPTGHISKSKTPTPHDNDNNSISDERETWSGKVDFLLSVIGFAVDLANVWRFPYLCYKNGGGAFLVPYGIMLVVGGIPLFYMELALGQHNRKGAITCWGRLVPLFKGIGYAVVLIAFYVDFYYNVIIAWSLRFFFASFTNSLPWTSCNNIWNTPNCRPFESQNASRVPVIGNYSDLYAMGNQSLLYNETYMNGSSLDTSAVGHVEGFQSAASEYFNRYILELNRSEGIHDLGAIKWDMALCLLIVYLICYFSLWKGISTSGKVVWFTALFPYAVLLILLIRGLTLPGSFLGIQYYLTPNFSAIYKAEVWVDAATQVFFSLGPGFGVLLAYASYNKYHNNVYKDALLTSFINSATSFIAGFVIFSVLGYMAHTLGVRIEDVATEGPGLVFVVYPAAIATMPASTFWALIFFMMLLTLGLDSSFGGSEAIITALSDEFPKIKRNRELFVAGLFSLYFVVGLASCTQGGFYFFHLLDRYAAGYSILVAVFFEAIAVSWIYGTNRFSEDIRDMIGFPPGRYWQVCWRFVAPIFLLFITVYGLIGYEPLTYADYVYPSWANALGWCIAGSSVVMIPAVAIFKLLSTPGSLRQRFTILTTPWRDQQSMAMVLNGVTTEVTVVRLTDTETAKEPVDV
Km: 2.1 ± 0.7 µM
